Reference: the DeepSol protein solubility set

Test: soluble on expression in E. coli; label from the status in PepcDB or PDB records

Row | Sequence | soluble on expression in E. coli
1 | MAHHHHHHMIYGKDGKYPVGEILEYNNYNLSGQSLVEKKEREKLSIDYYEDLRKAAECHRQVRKHMQAFIKPGKKMIDIAQETERKTKELILAEKLKCGWGFPTGCSLNHCAAHYTPNYGDETVLKYDDVCKLDFGVHVNGYIIDCAFTIAFNEKYDNLIKATQDGTNTGIKEAGIDARMCDIGEAIQEAIESYEIELNQKIYPIKAISNLRGHSINKYIIHGGKCVPIVRQKEKNEIMEEGELFAIETFASTGKGYVNHENECSHYMRNPEKQFVPIRLNSAKTLLKVINDNFDTLPFCNRWLDDLGQTRHFMALKTLIDLNIVEPYPPLCDIKNSFTSQMEHTILLRPTCKEVLSRGPDF | soluble
2 | MIGPENCNSVSEPIAYVIILAGGRSSRMGYDKAQVMVDGRRLIDLCLESIASVHAHPIVVSGQDLQLTAAVTQVMEEPAFGGPVAGIAAGMRCCDTKAGLIGVIAVDAPRSGNYLNQLRRVVLTHPEVGVAHAVVEGYDQPLLAVWRYEALTQALHALGSPRNVAAKRLLRSATTPVIAVPVDSSARDYDTVAELSALGRVRLRLEHHHHHH | not soluble
3 | MDPELQAIREARLAQLKNNSGGTNGDRNSGANNGGGENSAPVGAAIANFLEPQALERLSRVALVRRDRAQAVETYLKKLIATNNVTHKITEAEIVSILNGIAKQQNSQNNSKIIFERKDFSEDLNSFDKQNAKN | not soluble
4 | MGSDKIHHHHHHMGLLTNLKDSISRAASTLFSEEDPKRIGIYGPPNAGKTTLANRIARDWTGDAVGPESHVPHETRRARRKENVEIERDGKKVTIDIVDTPGVTTKVDYTEFLEHDMEKDDAVRRSREATEGVAEAMHWLREDVDGVIYVLDSATDPFTQVNTMLIGIIESQDLPVLILANKIDLEESSVQRIRNAYPQHETIPLSALEGDNMDEVYDKIAEYFG | not soluble
5 | MLETEHANTEVHELCRQMIARIEKYGTLEGFSDSDILEVLKTIKEILEPLPCLIEIIAPVVVFGDIHGQLGDLLQFTNEVGRPPDFQYLFLGDYVDRGPNSLEVTVWLFCMKILFSKKVHLLRGNHEVRRVNTMYGFKEEMMRKRNSHLWKVFNDVFAELSICASINRKILCMHGGISPKIESWDSLTGMTKPRVHGDCEHGLIVDLIWSDPNRKDDTIQFNKMRGISTLFGKSVVDNLCTTLAIDLIIRAHEMKEVYVFHLYLSSMKGHTFEFDNRLLTVFSAPYYSGHNSNLGSVATISKSLKLRIVTLKPNKGYDRSKLDKRTLHDFEKNFQPLDENPRKNISCQFNVPPNGQKMSPFLGEYSMFAHETQFCKKDNETPVKKPYSSNQDEDHSVLDMIRKTQKGYGVEVSLKDKVMSLESIRKKLGMTTSTTPPPPRTPSPDAPLAQSPPIPRSPPSSTENA | not soluble
6 | MGKEKVHINIVVIGHVDSGKSTTTGHLIYKCGGIDKRTIEKFEKEAQEMGKGSFKYAWVLDKLKAERERGITIDIALWKFETAKYYITIIDAPGHRDFIKNMITGTSQADCAVLVVACGTGEFEAGISKNGQTREHALLAQTLGVKQLIVACNKMDSTEPPFSEARFTEITNEVSGFIKKIGYNPKAVPFVPISGFNGDNMLEVSSNMPWFKGWAVERKEGNASGKTLLEALDSIIPPQRPTDRPLRLPLQDVYKIGGIGTVPVGRVETGIIKPGMVVTFAPQNVTTEVKSVEMHHESLPEAVPGDNVGFNVKNVSVKDIRRGSVCSDSKQDPAKEARTFHAQVIIMNHPGQISNGYTPVLDCHTAHIACKFNELKEKVDRRTGKKVEDFPKFLKSGDAGIVELIPTKPLCVESFTDYAPLGRFAVRDMRQTVAVGVIKSVEKSDGSSGKVTKSAQKAAPKKK | not soluble
7 | MFTGIVQGTAPIHSIKEKANFRTQVVKLLPEMRKDLEIGASIANNGVCLTVTEINGDLVSFDLMQETLKITNLGTVKVGDYVNIERAMQMGTEIGGHLLSGHIYCTAKISDIIASENNRQIWFELPSADVMKYILTKGFVAVDGISLTIGEVRDTQFCVNLIPETLQRTLMGRRKVGDIVNIEIDPQTQAIVDTVENYLQSKNFLEHHHHHH | soluble
8 | MLTRLAVEAAEQARLAAEVEAQRIAAETAEHARVVAEAEAKRVADEQALFAAEAEAHRITAEAAEQARMEAEAQAQRDADEHARVTAEAQALEAGKTLRLPEAGTPQLGAVAGVISVTAGSGLFLDATIQAAIEILAALVGTAVSSTTAVGIGTLLYSPSLGNGELPGRMLDLPARVLMPDLPDALNDVAATGGTVDMPYRIYGDQSKYSVVATQPEGGFSPKVPVRALILDPVANAYTFTTSDTPPITLTFPIAAPENSSTTTVAQPIETPAYTGITLEPIEVKAEPLPATSPLDIRDAIYVYPVNSGLPPVYVVFSSPYEGATTKGEHSGRMYDPDNAGGPTQNLDWTTASVTQNGIDLVKLHTGRFEPSDANAVMIDRLEKILRSELSMTDTDKRFYTHELRELERYRALGVADGVEGEVWNNAHTATLEDYKLKDSSESFYTPEAILEHHHHHH | soluble
9 | KARLIYNPTSGQEIMKKNVAEVLDILEGFGYETSAFQTTPTKNSARDEATRAAQAGFDLIVAAGGDGTINEVVNGIAPLKRRPKMAIIPTGTTNDFARALKIPRGNPIEATKLIGKNQIVKMDIGQAQED | not soluble
10 | MFKVDRYFDLTAPIYPYMPVWPSNPPVELKPIVTVPKDGYLAEIIEASTHTGTHIDAPAHMIEGGTTVDDLDLASLIGTGYCLKVLPDGHTIRSTHLAEKWQGIYNNSILLIETGWYKKRGYTREFQYDFPGLSEDAADFLIQKHVKAVGIDTLGIEPYENTDFRVHKKLLRSGIPIIEDLYGLDSLEEGRPYLIIALPLRLKGTSGSMARVVAAETELEHHHHHH | not soluble
11 | MVMIISTMEPQVSNGPTSNTSNGPSSNNRNCPSPMQTGATTDDSKTNLIVNYLPQNMTQEEFRSLFGSIGEIESCKLVRDKITGQSLGYGFVNYIDPKDAEKAINTLNGLRLQTKTIKVSYARPSSASIRDANLYVSGLPKTMTQKELEQLFSQYGRIITSRILVGQVTGVSRGVGFIRFDKRIEAEEAIKGLNGQKPSGATEPITVKFANNPSQKSSQALLSQLYQSPNRRYPGPLHHQAQRFRLDNLLNMAYGVKRFSPITIDGMTSLVGMNIPGHTGTGWCIFVYNLSPDSDESVLWQLFGPFGAVNNVKVIRDFNTNKCKGFGFVTMTNYDEAAMAITSLNGYRLGDRVLQVSFKTNKAHKS | soluble
12 | MAEAGIAHTALPLEAIPEKSAGKGEGLTLIIYMLELALHAIPENLKKTVYSKVELMAPRSDGVLLFYGLCGNVLGKIEEDFRALDCRVSILKEENGEIVDDCIGAVLGGRGHYLEALKSCRGAGTFFLTPMWAVNWREMIRTAGLSRNPDDIEMSKFVFDYAGYKRVARVNTGLAYEKDFDARVKEFSTLFEFEVTDLEGTLQLVENCYAKTKASMLEACPHSQTLEHHHHHH | not soluble
13 | MVDKAGNPLTVDDISQCHLPGFPILFTQNELLEILAKEIFKQQFLWKSVQDKDIKECNKEERIIKQIPLMPRCPDVLKGLFHCIEIRDERSPKHAIAYKSCLGKLEEMVKDQWDDWNRNQS | not soluble
14 | MAHHHHHHMLHPSNALLTALLFVTTRMTNVESVKKKPLPYVKNYNLCDRSVRGIPSRHTKGTIRASTNPITTAPNEDKSDVYTPPISSGN | soluble
15 | GSTAAEKPKLHYFNARGRMESTRWLLAAAGVEFEEKFIKSAEDLDKLRNDGYLMFQQVPMVEIDGMKLVQTRAILNYIASKYNLYGKDIKERALIDMYIEGIADLGEMILLLPVCPPEEKDAKLALIKEKIKNRYFPAFEKVLKSHGQDYLVGNKLSRADIHLVELLYYVEELDSSLISSFPLLKALKTRISNLPTVKKFLQPGSPRKPPMDEKSLEEHRKIFRF | soluble
16 | MIHAARSLAGSRAGPLLALLLLGLATARAEPVDGLPLRADGDGRWSLAAGRYAGNFVIDRPLHLRCEAGAELDGGGHGSLLTLTSPGITVEGCRLRNWGRNLTELDAAIFVGKAASGAVIRGNDLRGAGFGVWLDATVGAQVLDNRIEGDESVRSQDRGNGIHLYAVKDALVRGNRVSHTRDGVYIDTSNDSSIEANRFEELRYGVHYMFTHNSRVTDNLTRRTRTGYALMQSRKLTVTGNRSIDDENYGILMNYITYSTLAGNRVEGVRSGSTGDAMISGAEGKALFIYNSLFNRIEGNSFADSALGIHLTAGSEDNRIAGNAFIGNRQQVKYVASREQEWSADGRGNYWSDYLGWDRDDDGLGDVAYEPNDNVDRLIWLYPQVRLLLNSPSIELLRWVQRAFPVVRSPGVRDSHPLMRMPAAEPRPLEHHHHHH | not soluble
17 | SEDSGKTFSSEEEEANYWKDLAMTYKQRAENTQEELREFQEGSREYEAELETQLQQIETRNRDLLSENNRLRMELETIKEKFEVQHSEGYRQISALEDDLAQTKAIKDQLQKYIRELEQANDDLERAKRATIMSLEDFEQRLNQAIERNAFLESELDEKENLLESVQRLKDEARDLRQELAVQQKQEKPRTPMPSSVEAERTDTAVQATGSVPSTPIAHRGPSSSLNTPGSFRRGLDDSTGGTPLTPAARISALNIVGDLLRKVGALESKLASCRNLVYDQSPNRTGGPASGRSSKNRDGGERRPSSTSVPLGDKGLDTSCRWLSKSTTRSSSSC | soluble
18 | MGHHHHHHSHMCGKFTLFSEFDDIIEQFNIDQFLPEGEYHPSYNVAPSQNILTIINDGSNNRLGKLRWGLIPPCAKDEKIGYKMINARAETLAEKPSFRKPLGSKRCIIPADSFYEWKRLDPKTKIPMRIKLKSSNLFAFAGLYEKWNTLEGNLLYTCTIITIKPSELMEDIHDRMPVILTDENKKEWLNPKNTDPDYLQSLLLPYDADDMEAYQVSSLVNSPELIESH | soluble
19 | TKDFTWDLSYNITWNHNEITKLTGGDDSDYYVEAGDKISRGNNTKVQAHKVGYAANSFYVYQQVYDENGKPIENMFVDRNGNGTIDSGDKYIYKKPAGDVLMGLTSKMQYKNFDFSFSLRASLNNYVYYDFLSNKANVSTSGLFSNNAYSNTSAEAVALGLSGQGDYMSDYFIHNASFLRCDNITLGYSFQNLWKTQTYKGVGGRVYATVQNPFIISKYKGLDPEVKSGIDANPYPRAMTFLLGLSLQF | not soluble
20 | GPLGSAGKSSLFKIILLGDGGVGKSSLMNRYVTNKFDSQLFHTIGVEFLNKDLEVDGHFVTMQIWDTAGQERFRSLRTPFYRGSDCCLLTFSVDDSQSFQNLSNWKKEFIYYADVKEPESFPFVILGNKTDIKERQVSTEEAQAWCKDNGDYPYFETSAKDSTNVAAAFEEAVRRILAT | soluble
21 | MMLAISEIRKHPDGLSFDRLCDVKSMLLERDQQIIDIKAVKAVGNVRYDKGLYLLDYQLSYEVILPSSRSMVPVCLSEVQHIQELFIEATDLADKKELVEDNLVLVLDKDAINLEESIVDNILLAIPVQVLTEEEKKSKELPAGQNWAVLTEEDYQCLKEEKQKENNPFASLQGLFDE | not soluble
22 | MGSDKIHHHHHHMDLEEQKKAVIEKLIREGYIKSKRVIDALLKVPREEFLPEHLKEYAYVDTPLEIGYGQTISAIHMVGMMCELLDLKPGMKVLEIGTGCGYHAAVTAEIVGEDGLVVSIERIPELAEKAERTLRKLGYDNVIVIVGDGTLGYEPLAPYDRIYTTAAGPKIPEPLIRQLKDGGKLLMPVGRYLQRLVLAEKRGDEIIIKDCGPVAFVPLVGKEGFQG | not soluble
23 | MNKRNWTAYYNSTKQNTLPRKSLLKAIANFDKEKINLSKSAIDLGCGAGIDVMELLRCGWSVIAIDSQLSAIDSLLSSAQELTCANKLKTIISSFEALDSLPKVNLINASFSLPFLKPVYFYKFWSVILKGLKPGGRFSGSFFGFNDFWNTRTDMTFLNREMICHLFSQFKIEYFQEEEKDEMDALGYYKHWHKFFIVAKKIALEHHHHHH | not soluble
24 | MGHHHHHHSHMPKVYGSLIDTETRCRHYFTEEDIIAIKFKCCNKYYPCYKCHNEFEKHAIKRWSEPSFNEKAILCGVCKHELTINEYMMVERCPNCQSRFNNRCKYHYHIYFEI | soluble
